Results published in PMC10150958, “Combination of anti-C1qA08 and anti-mCRP a.a.35-47 antibodies is associated with renal prognosis of patients with lupus nephritis” (Frontiers in Immunology, 2023).

B1: peptide A08 (peptide)
peptide: GRPGRRGRPGLKG
notes: peptide from the collagen like region (CLR) of the C1q-A chain; Biotinylated and nonbiotinylated peptides were synthesized; also called C1qA08; source: synthetic peptide (GenScript, >95% purity)
B2: peptide B78 (peptide)
peptide: PGKVGPKGPMGPK
notes: peptide from the collagen like region (CLR) of the C1q-B chain; Biotinylated and nonbiotinylated peptides were synthesized; source: synthetic peptide (GenScript, >95% purity)
B3: monomeric CRP (mCRP) (natural protein, UniProt P02741 19-224, looked up)
chain: QTDMSRKAFVFPKESDTSYVSLKAPLTKPLKAFTVCLHFYTELSSTRGYSIFSYATKRQDNEILIFWSKDIGYSFTVGGSEILFEVPEVTVAPVHICTSWESASGIVEFWVDGKPRVRKSLKKGYTVGAEASIILGQEQDSFGGNFEGSQSLVGDIGNVNMWDFVLSPDEINTIYLGGPFSPNVLNWRALKYEVQGEVFTKPQLWP
notes: C-reactive protein, monomeric (dissociated, denatured) form; Same protein in all assays: purified mCRP in solution or coated on plates; for SPR with the C1q peptides pentameric CRP was coupled to the chip and turned into mCRP by urea/EDTA, because mCRP precipitated in acetate buffer; also called monomeric C-reactive protein; urea-denatured mCRP; source: urea-denatured mCRP on the microplate; on …
B4: peptide 199-206 of mCRP (peptide)
peptide: FTKPQLWP
notes: peptide 199-206 derived from mCRP (C-reactive protein); Biotinylated and nonbiotinylated peptides were synthesized; also called a.a.199-206; source: synthetic peptide (GenScript, >95% purity)
B5: peptide 35-47 of mCRP (peptide)
peptide: VCLHFYTELSSTR
notes: peptide 35-47 derived from mCRP (C-reactive protein); Biotinylated and nonbiotinylated peptides were synthesized; also called a.a.35-47; mCRP a.a.35-47; source: synthetic peptide (GenScript, >95% purity)

Experiments:
[1] = target: B3; assay: SPR; Biacore T200; CRP immobilised on a CM5 chip and denatured to mCRP by 200 s of 8 M urea and 5 mM EDTA; peptides A08, B78, A08-C injected at 30 μl/min in PBS with 0.05% P-20; conditions: both partners purified
[2] = target: T1, human complement component C1q (human, UniProt P02745 23-245; P02746 28-253; P02747 29-245); assay: SPR; Biacore T200; C1q coupled to a CM5 chip; mCRP or peptides a.a.35-47, a.a.199-206 injected at 30 μl/min in PBS with 0.05% P-20; steady-state curve for a.a.35-47; conditions: both partners purified
T1 construct: complement C1q, A chain, human; complement C1q, B chain, human; complement C1q, C chain, human; also called human C1q; copies: 6 + 6 + 6
T1 sequence (P02745 23-245, chain 1 of 3): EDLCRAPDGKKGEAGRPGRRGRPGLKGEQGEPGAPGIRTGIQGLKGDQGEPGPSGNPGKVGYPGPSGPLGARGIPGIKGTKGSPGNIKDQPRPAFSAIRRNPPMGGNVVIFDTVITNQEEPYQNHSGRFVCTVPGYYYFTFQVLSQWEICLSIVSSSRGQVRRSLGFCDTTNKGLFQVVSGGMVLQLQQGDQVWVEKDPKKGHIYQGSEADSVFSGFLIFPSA
T1 sequence (P02746 28-253, chain 2 of 3): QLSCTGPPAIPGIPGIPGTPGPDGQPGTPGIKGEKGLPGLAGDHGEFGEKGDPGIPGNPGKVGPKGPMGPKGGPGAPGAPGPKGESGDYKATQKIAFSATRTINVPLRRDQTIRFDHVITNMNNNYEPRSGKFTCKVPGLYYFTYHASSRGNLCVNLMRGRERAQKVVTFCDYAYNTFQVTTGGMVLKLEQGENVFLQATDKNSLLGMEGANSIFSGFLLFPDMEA
T1 sequence (P02747 29-245, chain 3 of 3): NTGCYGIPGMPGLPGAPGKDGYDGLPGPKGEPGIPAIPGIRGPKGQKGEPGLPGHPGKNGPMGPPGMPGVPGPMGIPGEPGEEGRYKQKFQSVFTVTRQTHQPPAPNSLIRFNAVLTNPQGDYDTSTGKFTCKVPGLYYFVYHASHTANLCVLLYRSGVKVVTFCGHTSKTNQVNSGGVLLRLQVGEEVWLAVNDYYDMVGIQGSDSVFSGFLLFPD

| Kd [1] [µM] | Kd [2] [nM] | Binder |
| --- | --- | --- |
| 4.7 | – | B1 |
| 3500 | – | B2 |
| – | 0.0737 | B3 |
| – | 890000 | B4 |
| – | 2940 | B5 |
